Experiments:
[1] = molecular target: CXC chemokine receptor 3 isoform A (CXCR3A) on transfected CHO cells (UniProt P49682)
[2] = molecular target: CXCR3 on primary human T lymphocytes stimulated with PHA and IL-2 (human (endogenous in primary T lymphocytes)) (UniProt P49682)

CXCR3 internalization: mean MFI of surface CXCR3 on PHA- and IL-2-stimulated primary T lymphocytes, as % of medium-treated cells, after 45 nM (90.1%) or 90 nM (83.3%) for 10 min at 37 °C [2]: 90.1%
Substance: C-terminally truncated CXCL10(1-73) (from UniProt P02778 22-94) (ligand)
desensitization: reduction of the calcium increase to 3 nM CXCL10(1-77) in CXCR3A-transfected CHO cells when 45 nM (69.9%) or 90 nM (72.2%) CXCL10(1-73) was added 100 s before [1]: 72.2%
